One series has as its target PTB-GFP (UniProt P26599). The experiment in a line: single-molecule TIRF. Particulars: Filter binding: 5 mM Hepes pH 7.4, 100 mM KCl, 3 mM MgCl2, 5% glycerol, 75 ug/ml yeast tRNA, 75 ug/ml BSA, 0.5 mM DTT, room temp, probing: 20 mM HEPES-KOH pH 7.
The test system of series [1] is PTB1 LmC4 C250S;C251S;E518C;K439A;K440A;del1-55, P26599-1. The series can be described thus: filter binding. Particulars: Filter binding: 5 mM Hepes pH 7.4, 100 mM KCl, 3 mM MgCl2, 5% glycerol, 75 ug/ml yeast tRNA, 75 ug/ml BSA, 0.5 mM DTT, room temp; probing: 20 mM HEPES-KOH pH 7.
In series [2] the test system is PTB1 C3C4 C250S;C251S;E518C;del1-55, P26599-1. The experiment in a line: filter binding. As to conditions: Filter binding: 5 mM Hepes pH 7.4, 100 mM KCl, 3 mM MgCl2, 5% glycerol, 75 ug/ml yeast tRNA, 75 ug/ml BSA, 0.5 mM DTT, room temp; probing: 20 mM HEPES-KOH pH 7.
Series [3] relates to PTB1 C3C4m C250S;C251S;E518C;del1-55, P26599-1. The experiment in a line: filter binding. As to conditions: Filter binding: 5 mM Hepes pH 7.4, 100 mM KCl, 3 mM MgCl2, 5% glycerol, 75 ug/ml yeast tRNA, 75 ug/ml BSA, 0.5 mM DTT, room temp; probing: 20 mM HEPES-KOH pH 7.
The subject of series [4] is PTB1 C3mC4 C250S;C251S;E518C;del1-55, P26599-1. The experiment in a line: filter binding. As to conditions: Filter binding: 5 mM Hepes pH 7.4, 100 mM KCl, 3 mM MgCl2, 5% glycerol, 75 ug/ml yeast tRNA, 75 ug/ml BSA, 0.5 mM DTT, room temp; probing: 20 mM HEPES-KOH pH 7.
Series [5] relates to PTB1 C1C2m C250S;C251S;Q124C;D284C;I214S;F216A;K218S;del1-55, P26599-1. The experiment in a line: filter binding. Particulars: Filter binding: 5 mM Hepes pH 7.4, 100 mM KCl, 3 mM MgCl2, 5% glycerol, 75 ug/ml yeast tRNA, 75 ug/ml BSA, 0.5 mM DTT, room temp; probing: 20 mM HEPES-KOH pH 7.
Series [6] concerns PTB1 C4pack C250S;C251S;E518C;E502K;V505E;I509K;del1-55, P26599-1. The series can be described thus: filter binding. As to conditions: Filter binding: 5 mM Hepes pH 7.4, 100 mM KCl, 3 mM MgCl2, 5% glycerol, 75 ug/ml yeast tRNA, 75 ug/ml BSA, 0.5 mM DTT, room temp; probing: 20 mM HEPES-KOH pH 7.
Series [7] concerns PTB1 C1mC2m C250S;C251S;Q124C;D284C;I214S;F216A;K218S;del1-55, P26599-1. The series can be described thus: filter binding. As to conditions: Filter binding: 5 mM Hepes pH 7.4, 100 mM KCl, 3 mM MgCl2, 5% glycerol, 75 ug/ml yeast tRNA, 75 ug/ml BSA, 0.5 mM DTT, room temp; probing: 20 mM HEPES-KOH pH 7.
Series [8] has as its system PTB1 C1C2 C250S;C251S;Q124C;D284C;del1-55, P26599-1. The experiment in a line: filter binding. Particulars: Filter binding: 5 mM Hepes pH 7.4, 100 mM KCl, 3 mM MgCl2, 5% glycerol, 75 ug/ml yeast tRNA, 75 ug/ml BSA, 0.5 mM DTT, room temp; probing: 20 mM HEPES-KOH pH 7.
The test system of series [9] is PTB1 C3mC4m C250S;C251S;E518C;del1-55, P26599-1. The experiment in a line: filter binding. Particulars: Filter binding: 5 mM Hepes pH 7.4, 100 mM KCl, 3 mM MgCl2, 5% glycerol, 75 ug/ml yeast tRNA, 75 ug/ml BSA, 0.5 mM DTT, room temp; probing: 20 mM HEPES-KOH pH 7.
The test system of series [10] is PTB1 C4 C250S;C251S;E518C;del1-55, P26599-1. The series can be described thus: filter binding. As to conditions: Filter binding: 5 mM Hepes pH 7.4, 100 mM KCl, 3 mM MgCl2, 5% glycerol, 75 ug/ml yeast tRNA, 75 ug/ml BSA, 0.5 mM DTT, room temp; probing: 20 mM HEPES-KOH pH 7.
For series [11], the system named is PTB1 C1mC2 C250S;C251S;Q124C;D284C;del1-55, P26599-1. The series can be described thus: filter binding. Particulars: Filter binding: 5 mM Hepes pH 7.4, 100 mM KCl, 3 mM MgCl2, 5% glycerol, 75 ug/ml yeast tRNA, 75 ug/ml BSA, 0.5 mM DTT, room temp; probing: 20 mM HEPES-KOH pH 7.
Series [12] has as its system PTB1 C4m C250S;C251S;E518C;del1-55, P26599-1. The experiment in a line: filter binding. Particulars: Filter binding: 5 mM Hepes pH 7.4, 100 mM KCl, 3 mM MgCl2, 5% glycerol, 75 ug/ml yeast tRNA, 75 ug/ml BSA, 0.5 mM DTT, room temp; probing: 20 mM HEPES-KOH pH 7.

Experimental findings from publication PMC4117754 are described below.

The term Kd denotes the equilibrium constant for the complex coming apart.

Chain of PTB-GFP (P26599 whole entry): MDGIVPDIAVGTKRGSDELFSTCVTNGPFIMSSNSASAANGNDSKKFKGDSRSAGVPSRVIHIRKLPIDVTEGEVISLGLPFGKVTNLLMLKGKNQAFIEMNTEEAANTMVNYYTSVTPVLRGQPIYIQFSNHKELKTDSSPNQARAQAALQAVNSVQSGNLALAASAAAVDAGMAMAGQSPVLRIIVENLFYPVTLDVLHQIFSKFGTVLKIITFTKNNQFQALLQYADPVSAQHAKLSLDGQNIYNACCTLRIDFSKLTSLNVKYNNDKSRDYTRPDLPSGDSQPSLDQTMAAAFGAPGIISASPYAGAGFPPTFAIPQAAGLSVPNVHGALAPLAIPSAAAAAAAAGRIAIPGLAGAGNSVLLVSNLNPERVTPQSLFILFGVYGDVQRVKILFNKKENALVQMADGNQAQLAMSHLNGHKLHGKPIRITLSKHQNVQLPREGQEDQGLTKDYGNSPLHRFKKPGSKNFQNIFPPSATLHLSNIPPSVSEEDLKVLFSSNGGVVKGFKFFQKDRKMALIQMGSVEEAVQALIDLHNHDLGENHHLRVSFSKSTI
Chain of PTB1 C4 C250S;C251S;E518C;del1-55, P26599-1 (P26599 other isoform, or with tags, fused parts or gaps C250S C251S E518C): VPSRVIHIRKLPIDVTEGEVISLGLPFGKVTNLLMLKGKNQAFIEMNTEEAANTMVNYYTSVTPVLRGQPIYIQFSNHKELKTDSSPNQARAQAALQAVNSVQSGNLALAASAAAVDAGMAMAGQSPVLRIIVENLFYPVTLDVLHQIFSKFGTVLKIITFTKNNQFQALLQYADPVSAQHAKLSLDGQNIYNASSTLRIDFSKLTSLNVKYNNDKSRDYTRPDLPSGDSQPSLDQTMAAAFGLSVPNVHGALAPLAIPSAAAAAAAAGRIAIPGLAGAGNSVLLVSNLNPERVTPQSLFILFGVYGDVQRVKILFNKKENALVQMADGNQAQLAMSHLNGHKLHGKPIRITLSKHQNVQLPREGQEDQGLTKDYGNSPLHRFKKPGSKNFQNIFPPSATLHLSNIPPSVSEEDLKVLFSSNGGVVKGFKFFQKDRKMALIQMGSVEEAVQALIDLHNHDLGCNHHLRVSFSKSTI
Chain of PTB1 C3mC4m C250S;C251S;E518C;del1-55, P26599-1 (P26599 other isoform, or with tags, fused parts or gaps C250S C251S E518C): as above
Chain of PTB1 C3C4 C250S;C251S;E518C;del1-55, P26599-1 (P26599 other isoform, or with tags, fused parts or gaps C250S C251S E518C): as above
Chain of PTB1 C4m C250S;C251S;E518C;del1-55, P26599-1 (P26599 other isoform, or with tags, fused parts or gaps C250S C251S E518C): as above
Chain of PTB1 C3mC4 C250S;C251S;E518C;del1-55, P26599-1 (P26599 other isoform, or with tags, fused parts or gaps C250S C251S E518C): as above
Chain of PTB1 C3C4m C250S;C251S;E518C;del1-55, P26599-1 (P26599 other isoform, or with tags, fused parts or gaps C250S C251S E518C): as above
Chain of PTB1 C1mC2 C250S;C251S;Q124C;D284C;del1-55, P26599-1 (P26599 other isoform, or with tags, fused parts or gaps C250S C251S Q124C D284C): as the sequence (P26599 other isoform, or with tags, fused parts or gaps C250S C251S E518C) above, with Q69C, D229C, C463E counted along it
Chain of PTB1 C1C2 C250S;C251S;Q124C;D284C;del1-55, P26599-1 (P26599 other isoform, or with tags, fused parts or gaps C250S C251S Q124C D284C): as the sequence (P26599 other isoform, or with tags, fused parts or gaps C250S C251S E518C) above, with Q69C, D229C, C463E counted along it
Chain of PTB1 LmC4 C250S;C251S;E518C;K439A;K440A;del1-55, P26599-1 (P26599 other isoform, or with tags, fused parts or gaps C250S C251S E518C K439A K440A): as the sequence (P26599 other isoform, or with tags, fused parts or gaps C250S C251S E518C) above, with K384A, K385A counted along it
Chain of PTB1 C4pack C250S;C251S;E518C;E502K;V505E;I509K;del1-55, P26599-1 (P26599 other isoform, or with tags, fused parts or gaps C250S C251S E518C E502K V505E I509K): as the sequence (P26599 other isoform, or with tags, fused parts or gaps C250S C251S E518C) above, with E447K, V450E, I454K counted along it
Chain of PTB1 C1C2m C250S;C251S;Q124C;D284C;I214S;F216A;K218S;del1-55, P26599-1 (P26599 other isoform, or with tags, fused parts or gaps C250S C251S Q124C D284C I214S F216A K218S): as the sequence (P26599 other isoform, or with tags, fused parts or gaps C250S C251S E518C) above, with Q69C, I159S, F161A, K163S, D229C, C463E counted along it
Chain of PTB1 C1mC2m C250S;C251S;Q124C;D284C;I214S;F216A;K218S;del1-55, P26599-1 (P26599 other isoform, or with tags, fused parts or gaps C250S C251S Q124C D284C I214S F216A K218S): as the sequence (P26599 other isoform, or with tags, fused parts or gaps C250S C251S E518C) above, with Q69C, I159S, F161A, K163S, D229C, C463E counted along it

Tpm1 RNA came in with a binding signal (% RNA with bound PTB-GFP) in the series with PTB-GFP of 7.9.
For “AUGUGAACAUGGAAUCAUCAAGGAAUGCACACUCACCAGCAACACCAAGUGCAAAGAGGAAGGUAAUUAUUUUUUUACGGUUAUAUUCUCCUUUCCCCCAACCCCAUGGAAAGAUGUGAAGAAAAACCAAUCACUCUUGAUUACUAGAAAGUCCUUUAUUUAAUCUUAAAGAUUGCUUAUUUUCAUAUAAAAUGUCCAAUGUUCCAACCUACAGGAUCCAGAUCUAACUUGGGGUGGCUUUGUCUUCUUCUUUUGCCAAUUCCACUAAUUGUUUGGGGUAAGUUCUUGCUUUGUUCAAACUGCAGAUUGAAAUAACUUGGGAAGUAGGUGUGAAAGUAUGUUCUCACAUGCAUUCUACAAGGCUGAGACCUGAGUUGAUAAAAUUUCUUUGUUCUUUCAGUGAAGAGAAAGGAAGUACAGAAAACAUGCAGAAAGCACAGAAAGGAA [FAS WT RNA (exon 5-6-7)]”, the dissociation constant Kd worked out at 20 nM with PTB-GFP (average Kd, 3-4 PTB sites, 2.6% of RNA with bound PTB-GFP, nuclear extract); 14.2 nM in series [1]; 14.7 nM in series [2]; 22.9 nM in [3]; 16.5 nM in [4]; 15.3 nM in [5]. In addition, the dissociation constant (Kd) in series [6] was 6.3 nM; in series [7], 12.3 nM; in series [8] it was 10.1 nM; in series [9], 24.6 nM; in series [10] it was 10.3 nM; in [11], 11.6 nM. For the same substance, the Kd in [12] came out at 29.9 nM.
In the series with PTB-GFP, “AUGUGAACAUGGAAUCAUCAAGGAAUGCACACUCACCAGCAACACCAAGUGCAAAGAGGAAGGUAAUUAUUUUUUUACGGUUAUAUUCUCCUUUCCCCCAACCCCAUGGAAAGAUGUGAAGAAAAACCAAUCACUCUUGAUUACUAGAAAGUCCUUUAUUUAAUCUUAAAGAUUGCUUAUUUUCAUAUAAAAUGUCCAAUGUUCCAACCUACAGGAUCCAGAUCUAACUUGGGGUGGCAAUGCACACUCACCAGGCCAAUUCCACUAAUUGUUUGGGGUAAGUUCUUGCUUUGUUCAAACUGCAGAUUGAAAUAACUUGGGAAGUAGGUGUGAAAGUAUGUUCUCACAUGCAUUCUACAAGGCUGAGACCUGAGUUGAUAAAAUUUCUUUGUUCUUUCAGUGAAGAGAAAGGAAGUACAGAAAACAUGCAGAAAGCACAGAAAGGAA [FAS m0 mutant RNA]” yielded a binding signal (% RNA with bound PTB-GFP) of 2.9. In series [10], the dissociation constant (Kd) worked out at 7.5 nM.
